Assay results published in the RNAGym collection of RNA variant scans (doi:10.1073/pnas.2313332121).

B1: TPR t1 (parent)
chain: GACCAAUCUGCCCUCAGAGCUCGAGAACAUCUUCGGAUGCAGAGGAGGCAGGCUUCGGUGGCGCGAUAGCGCCAACGUCCUCAACCUCCAAUGCAUCCCACCACAUGAUGAUGCCUGAAGAGCCUUGGUUUUUUG

Variants of: B1
Assay: polymerase ribozyme fitness, log enrichment relative to wild type (log ratio); higher = more active; in vitro selection for triplet polymerase activity
How it was run: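 Fitness measures genotype enrichment against wild-type enrichment on a logarithmic scale, with inverse-variance-weighted averaging of replicates. The logarithm is base 2, and genotypes were kept only with ≥10 input reads and ≥1 read per output in Illumina sequencing. The sequenced libraries came from one triplicate in vitro selection round, including frozen incubation at −7 °C, of PCR-built, transcribed mutant libraries of each subunit of a heterodimeric triplet polymerase ribozyme.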

Variant | polymerase ribozyme fitness (log ratio)
A6U C40U G57C G61U A100C G113A | -3.51
A6U C8G | 0.868
A6U C8U | 0.736
A6G U54A G93A | -0.596
A6U G44U U87A A91C C97U | -1.94
A6G C102A | -1.96
A6C G107U | -4.64
A6C U9A G52A A68G U106A | -2.55
A6U C56G C76U C86A A90G | -1.7
A6U A75U C82A C115A U125A G128C | -3.75
A6U C89U | -0.0502
A6U C64U | -0.037
A6U A50U A95C | -1.57
A6U G60U | -0.858
A6U C53A C97U G113A | -1.91
A6U C76G C98U | -1.31
A6U A37C | -0.207
A6U A37U | -0.0542
A6G A46U G48U C101U U116C G122U | -5.6
A6U G57U G61A U87C C99A C124A | -5.7
A6C U9C A46C G61A C62U C82U | -3.08

Variant | polymerase ribozyme fitness (log ratio)
A6C G47C G71U | -2.53
A6U C94G G120A | 0.554
A6U C11U G71C | -0.83
A6U C11U G47A A118U | -1.52
A6U C13G A74U C88U C97U G117C C124G U132A | -3.99
A6U G48U U81C A121G | 0.747
A6U C56U C97A | -6.51
A6U C8A C12A A41U C79A C89A C94U C101U U116G C123U | -6.77
A6U G57C G69A A90G | -2.65
A6U C34G C123U | -5.18
A6U G48U C53A C88G C102A | -3.09
A6G C70U | -1.29
A6G U14G C28U G110C C115U U125A | -6.22
A6C G36U U96G G120C G122A | -0.981
A6U U9A A26U | -1.87
A6G C49U G69U | -0.168
A6G G45U C73U C98U A111G U125A | -5.29
A6U G17C A50C U87A | -4.69
A6U C97U | -0.46
A6U C97A | -3.55
A6U C12U C56U A95G | -0.128

Variant | polymerase ribozyme fitness (log ratio)
A6U G48U C64U U81G | -4.27
A6U C8G G60A U130C | -0.0856
A6G A50G U112C | 1.56
A6C U59G | -0.454
A6U C8A G71U C101G | -1.45
A6U A46C C49G C82G C89U | -2.2
A6U G47A C62A C123A | -1.69
A6U C56U C72U | 0.0866
A6U A46C | -0.0914
A6U A41G U81A | -1.63
A6U C12G C89G A105C U106G | -3.35
A6G C62U G110C | -4.63
A6G U7A C53U C80G C101A | -5.66
A6C U32A C64U A111G | -4.1
A6G A29G C72G C82G C89A G120C | -4.07
A6U A24C C28A G47U G65C C102G G107A G120A G127U | -6.59
A6G C72U U112G | 0.809
A6U C11G U55C | -0.352
A6U C70U C88A U129C | -1.84
A6U C8U C70A C101G | -3.42
A6U C70A C124A | 0.175

Variant | polymerase ribozyme fitness (log ratio)
A6C G69U C76G C85G G120U | -1.75
A6U A50G G117A | -1.14
A6G A46C G48U G52U A95C | -5.42
A6G C12A C80U G113U | -3.95
A6U C11U C80U C102U | -3.5
A6G A83U | -0.371
A6U G45C C101U G110C | -5.31
A6G C12G A27U G113U U125A | -7.04
A6U G44U G61A A103U G122A C124G U125G | -4.72
A6C G48C C72U U106A | -1.51
A6U U38G C73U U125A | -1.49
A6G A29U A37G C56U C62G U87G A105C G117C | -5.41
A6G G69U C115A G120A | 0.502
A6C G36C | -1.4
A6G C98G | -6.34
A6U G45C C72G C101U G110C | -4.94
A6U G61A | -0.0423
A6U A105C | -1.94
A6G A95C | -1.16
A6U C12A C124A | 0.761
